Source: US20180141989A1 (BOARD OF REGENTS OF THE UNIVERSITY OF OKLAHOMA, published 2018)
Where no end group is shown, it is not given here.

B1: AM(37-52) D37V/S45W/K46L/Q50W/Y52F (peptide)
peptide: VKDNVAPRWLISPWGF-NH2
notes: also called AM(37-52)NH2 [D37V, S45W, K46L, Q50W, Y52F]
B2: AM(37-52) S45R/K46W/Q50W (peptide)
peptide: DKDNVAPRRWISPWGY-NH2
notes: also called AM(37-52)NH2 [S45R, K46W, Q50W]
B3: AM(37-52) S45R/K46W/I47L/S48G/Q50W (peptide)
peptide: DKDNVAPRRWLGPWGY-NH2
notes: also called AM(37-52)NH2 [S45R, K46W, I47L, S48G, Q50W]
B4: AM(37-52) S45R/K46L/Q50W (peptide)
peptide: DKDNVAPRRLISPWGY-NH2
notes: also called AM(37-52)NH2 [S45R, K46L, Q50W]
B5: AM(37-52) S45R/K46L/S48G/Q50W (peptide)
peptide: DKDNVAPRRLIGPWGY-NH2
notes: also called AM(37-52)NH2 [S45R, K46L, S48G, Q50W]
B6: AM(37-52) S45R/K46W/S48G/Q50W (peptide)
peptide: DKDNVAPRRWIGPWGY-NH2
notes: also called AM(37-52)NH2 [S45R, K46W, S48G, Q50W]

Legend:
[1] = biological target: T1, MBP-RAMP1 ECD-(GS)5-CLR ECD-H6 fusion protein (human, UniProt O60894 24-111; Q16602 29-144); assay: FP (anisotropy) competition: displaces FITC-Ahx-AM(37-52)NH2[S45W,Q50W] probe (7 nM) from MBP-RAMP1 ECD-(GS)5-CLR ECD-H6 (15 nM) [A-C) panel B]
T1 construct: range 24-111;range 29-144; Tethered ECD fusion made in E. coli; used in the FP assay at 15 nM; also called MBP-hRAMP1.24-111-(Gly-Ser)5-hCLR.29-144-H6
Protocol: (§1) Fluorescence polarization peptide binding assay. […] The reactions (50 μL) were incubated for 2 hours at room temperature to reach equilibrium, and the anisotropy was measured in black half-area 96-well plates using a BMG LABTECH's POLARstar® Omega plate reader (Ortenberg, Germany). The reaction buffer was 50 mM HEPES, pH 7.5, 150 mM NaCl, 0.5 mg/ml fatty acid-free BSA, 0.5 mM EDTA, 0.5 mM maltose. KI values were calculated using nonlinear regression fitting of the competition curves to the exact analytical equations of Roehrl et al. (Biochemistry (2004) 43:16056-66) using GraphPad Prism 5.0 (GraphPad Software, San Diego Calif.).
as §1, with “Single representative experiments conducted with duplicate samples are shown.” for “Fluorescence polarization peptide binding assay.”, “reactions” for “reactions (50 μL)”

[2] = biological target: T1, MBP-RAMP1 ECD-(GS)5-CLR ECD-H6 fusion …; assay: FP competition vs FITC-AM W/W probe, purified ECD fusion
Protocol: as §1
(§2) The large size difference between the MBP-RAMP ECD-CLR ECD fusion proteins (˜65 kDa) and the probe (˜2.5 kDa) ensures a significant anisotropy difference between bound and free states of the probe. […] Kd values for the probe at each of the tethered ECD fusion proteins were determined in equilibrium saturation binding experiments (data not shown), and KI values were determined for unlabeled peptides in equilibrium competition experiments (Table 1; FIGS. 2-5). The data were analyzed according to exact analytical equations using non-linear regression curve fitting in GraphPad Prism 5.0 (GraphPad Software) via user-defined equations.

[3] = biological target: T1, MBP-RAMP1 ECD-(GS)5-CLR ECD-H6 fusion …; assay: ratio of FP KI values at the two ECD complexes
Protocol: as §1, §2

[4] = biological target: MBP-RAMP2 ECD [L106R]-(GS)5-CLR ECD-H6 fusion protein (human) (UniProt O60895); assay: FP competition vs FITC-AM W/W probe, purified ECD fusion
[5] = biological target: T1, MBP-RAMP1 ECD-(GS)5-CLR ECD-H6 fusion …; assay: FP (anisotropy) competition: displaces FITC-Ahx-AM(37-52)NH2[S45W,Q50W] probe (7 nM) from MBP-RAMP1 ECD-(GS)5-CLR ECD-H6 (15 nM) [A-C) panel C]
Protocol: as §1
as §1, with “Single representative experiments conducted with duplicate samples are shown.” for “Fluorescence polarization peptide binding assay.”, “reactions” for “reactions (50 μL)”

[6] = biological target: T1, MBP-RAMP1 ECD-(GS)5-CLR ECD-H6 fusion …; assay: FP (anisotropy) competition: displaces FITC-Ahx-AM(37-52)NH2[S45W,Q50W] probe (7 nM) from MBP-RAMP1 ECD-(GS)5-CLR ECD-H6 (15 nM) [I-J) lower graph]
Protocol: as §1

[7] = biological target: T1, MBP-RAMP1 ECD-(GS)5-CLR ECD-H6 fusion …; assay: FP (anisotropy) competition: displaces FITC-Ahx-AM(37-52)NH2[S45W,Q50W] probe (7 nM) from MBP-RAMP1 ECD-(GS)5-CLR ECD-H6 (15 nM) [D-E) panel D]
Protocol: as §1

[8] = biological target: MBP-RAMP2 ECD [L106R]-(GS)5-CLR ECD-H6 fusion protein (human) (UniProt O60895); assay: FP (anisotropy) competition: displaces FITC-Ahx-AM(37-52)NH2[S45W,Q50W] probe (7 nM) from MBP-RAMP2 ECD[L106R]-(GS)5-CLR ECD-H6 (110 nM) [I-K) panel I]
[9] = biological target: T1, MBP-RAMP1 ECD-(GS)5-CLR ECD-H6 fusion …; assay: FP (anisotropy) competition: displaces FITC-Ahx-AM(37-52)NH2[S45W,Q50W] probe (7 nM) from MBP-RAMP1 ECD-(GS)5-CLR ECD-H6 (15 nM) [F-H) panel H]
Protocol: as §1

[10] = biological target: T1, MBP-RAMP1 ECD-(GS)5-CLR ECD-H6 fusion …; assay: FP (anisotropy) competition: displaces FITC-Ahx-AM(37-52)NH2[S45W,Q50W] probe (7 nM) from MBP-RAMP1 ECD-(GS)5-CLR ECD-H6 (15 nM) [I-J) upper graph]
Protocol: as §1

[11] = biological target: MBP-RAMP2 ECD [L106R]-(GS)5-CLR ECD-H6 fusion protein (human) (UniProt O60895); assay: FP (anisotropy) competition: displaces FITC-Ahx-AM(37-52)NH2[S45W,Q50W] probe (7 nM) from MBP-RAMP2 ECD[L106R]-(GS)5-CLR ECD-H6 (110 nM) [I-K) panel J]
[12] = biological target: T2, MBP-RAMP1 ECD-(GS)5-CTR ECD-H6 fusion protein (human, UniProt O60894 27-118; P30988 34-141, limits assumed); assay: AlphaLISA competition vs Biotin-AC413 probe, purified AMY1 ECD fusion
T2 construct: extracellular domain; CTR-based proteins were produced in HEK293T cells (N-glycosylated); also called RAMP1-CTR ECD; RAMP1-CTR
Protocol: A single representative experiment conducted with duplicate samples is shown. […] The reactions were incubated for 5 hours at room temperature to reach equilibrium, and the luminescence was measured in white 384-well plates using a BMG LABTECH's POLARstar® Omega plate reader (Ortenberg, Germany). The reaction buffer was 50 mM MOPS, pH 7.4, 150 mM NaCl, 7 mg/ml fatty acid-free BSA and the streptavidin-coated donor beads and MBP-antibody coated acceptor beads were at 15 μg/ml each. IC₅₀ values were calculated using nonlinear regression fitting of the competition curves to a three-parameter, one-site competitive binding equation in GraphPad Prism 5.0 (GraphPad Software, San Diego Calif.).

[13] = biological target: T1, MBP-RAMP1 ECD-(GS)5-CLR ECD-H6 fusion …; assay: FP (anisotropy) competition: displaces FITC-Ahx-AM(37-52)NH2[S45W,Q50W] probe (7 nM) from MBP-RAMP1 ECD-(GS)5-CLR ECD-H6 (15 nM) [D-E) panel E]
Protocol: as §1

[14] = biological target: T1, MBP-RAMP1 ECD-(GS)5-CLR ECD-H6 fusion …; assay: FP (anisotropy) competition: displaces FITC-Ahx-AM(37-52)NH2[S45W,Q50W] probe (7 nM) from MBP-RAMP1 ECD-(GS)5-CLR ECD-H6 (15 nM) [A-C) panel C]; remark: listed apart in the source
Protocol: as §1

T1 sequence (O60894 other isoform, or with tags, fused parts or gaps limits assumed, form in doubt): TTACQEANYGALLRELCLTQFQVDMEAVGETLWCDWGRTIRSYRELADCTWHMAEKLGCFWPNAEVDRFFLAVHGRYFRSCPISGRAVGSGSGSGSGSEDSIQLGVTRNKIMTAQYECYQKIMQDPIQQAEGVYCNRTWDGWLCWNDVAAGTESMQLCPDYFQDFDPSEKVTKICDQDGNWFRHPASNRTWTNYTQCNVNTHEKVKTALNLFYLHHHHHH
Sequence of MBP-RAMP2 ECD [L106R]-(GS)5-CLR ECD-H6 fusion protein (human) (O60895 other isoform, or with tags, fused parts or gaps L106R L106R): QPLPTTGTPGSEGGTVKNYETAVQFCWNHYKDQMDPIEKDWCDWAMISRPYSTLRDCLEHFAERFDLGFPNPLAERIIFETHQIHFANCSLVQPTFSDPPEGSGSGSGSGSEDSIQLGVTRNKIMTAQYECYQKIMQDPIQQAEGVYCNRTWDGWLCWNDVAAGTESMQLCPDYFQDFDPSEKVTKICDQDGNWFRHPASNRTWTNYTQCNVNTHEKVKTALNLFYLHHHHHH
T2 sequence (O60894 other isoform, or with tags, fused parts or gaps limits assumed): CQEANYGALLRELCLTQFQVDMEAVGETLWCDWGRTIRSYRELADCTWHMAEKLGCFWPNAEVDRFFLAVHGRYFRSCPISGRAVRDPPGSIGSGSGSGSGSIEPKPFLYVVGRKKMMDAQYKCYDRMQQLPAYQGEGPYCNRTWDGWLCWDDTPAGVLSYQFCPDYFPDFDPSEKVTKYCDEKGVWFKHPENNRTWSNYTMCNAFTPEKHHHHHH

Row | Ki [2] [nM] | pKI [2] | Receptor Selectivity (fold, over RAMP2-CLR ECD) [3] [fold] | Ki [4] [nM] | pKI [4] | further results | Binder
1 | 2.95 | 8.53 | – | – | – | IC50 (read off the curve) [1]: ~20 nM | FVPTDVGPFSF-NH2 [CGRP(27-37)NH2 [N31D, S34P, K35F, A36S]]
2 | 17.6 | 7.75 | 821 | 14500 | 4.84 | – | FVPTDTGPWGY-NH2 [CGRP(27-37)NH2 [N31D, V32T, S34P, K35W, A36G, F37Y]]
3 | 1.32 | 8.88 | 245 | 324 | 6.49 | IC50 (read off the curve) [5]: ~20 nM | FVPTDVGPWSY-NH2 [CGRP(27-37)NH2 [N31D, S34P, K35W, A36S, F37Y]]
4 | 8.13 | 8.09 | – | – | – | IC50 (read off the curve) [1]: ~20 nM | FVPTDVGPWAF-NH2 [CGRP(27-37)NH2 [N31D, S34P, K35W]]
5 | – | – | – | – | – | IC50 (read off the curve) [6]: ~10 nM | B1
6 | 82.2 | 7.1 | 22 | 1830 | 5.74 | IC50 (read off the curve) [7]: ~200 nM | DKFNVAPRSLISPWGY-NH2 [AM(37-52)NH2 [D39F, K46L, Q50W]]
7 | – | – | – | – | – | IC50 (read off the curve) [8]: 2000 nM; IC50 (read off the curve) [9]: ~300 nM | B2
8 | – | – | – | – | – | IC50 (read off the curve) [10]: ~100 nM; IC50 (read off the curve) [11]: 1000 nM | B3
9 | – | – | – | – | – | IC50 (read off the curve) [8]: 300 nM; IC50 (read off the curve) [9]: ~90 nM | B4
10 | 1.91 | 8.72 | 2130 | 4070 | 5.39 | IC50 (read off the curve) [7]: ~20 nM; IC50 [12]: 16000 nM | DKDNVAPRWLISPWGF-NH2 [AM(37-52)NH2 [S45W, K46L, Q50W, Y52F]]
11 | 7.94 | 8.1 | 977 | 7760 | 5.11 | IC50 (read off the curve) [13]: ~30 nM | DKDNVAPRWMISPWGF-NH2 [AM(37-52)NH2 [S45W, K46M, Q50W, Y52F]]
12 | 24 | 7.62 | 692 | 16600 | 4.78 | IC50 (read off the curve) [13]: ~70 nM | DKDNVAPRWWISPWGF-NH2 [AM(37-52)NH2 [S45W, K46W, Q50W, Y52F]]
13 | 440 | 6.36 | 28 | 12500 | 4.9 | – | DKDNVAPRTWISPWGY-NH2 [AM(37-52)NH2[S45T, K46W, Q50W]]
14 | 31.6 | 7.5 | 2820 | 89100 | 4.05 | IC50 (read off the curve) [14]: ~100 nM | DKDNVAPRSLISPWGF-NH2 [AM(37-52)NH2 [K46L, Q50W, Y52F]]
15 | – | – | – | – | – | IC50 (read off the curve) [10]: ~20 nM; IC50 (read off the curve) [11]: 90 nM | B5
16 | – | – | – | – | – | IC50 (read off the curve) [10]: ~100 nM; IC50 (read off the curve) [11]: 700 nM | B6
17 | 25 | 7.61 | 1210 | 30300 | 4.55 | IC50 (read off the curve) [7]: ~80 nM | DKFNVAPRSLISPWGF-NH2 [AM(37-52)NH2 [D39F, K46L, Q50W, Y52F]]
18 | 70.8 | 7.15 | 23 | 1660 | 5.78 | IC50 (read off the curve) [14]: ~100 nM | DKDNVAPRSLISPWGY-NH2 [AM(37-52)NH2 [K46L, Q50W]]
19 | – | – | – | 6100 | 5.22 | – | DKKNVAPRSKISPQGY-NH2 [AM(37-52)NH2 [D39K]]
